US20190010203A1 (ADEPTHERA, published 2019)
Non-standard residues stand in square brackets, D forms with d. No end group written: not given here. *: point of attachment. Palmitoyl = CCCCCCCCCCCCCCCC(=O)*; AEEEA = NCCOCCOCCOCC(=O)O

Experiments:
Test in all cases: cell-based or functional assay
[1] = target: T1, CLR/RAMP1 receptor (UniProt Q16602 23-461; O60894 27-148, limits assumed)
[2] = target: T2, CLR/RAMP2 receptor (UniProt Q16602 23-461; O60895 43-175, limits assumed)
[3] = target: T1, CLR/RAMP1 receptor; remark: listed apart in the source
[4] = target: T2, CLR/RAMP2 receptor; remark: listed apart in the source

T2 sequence (Q16602 23-461 limits assumed, chain 1 of 2): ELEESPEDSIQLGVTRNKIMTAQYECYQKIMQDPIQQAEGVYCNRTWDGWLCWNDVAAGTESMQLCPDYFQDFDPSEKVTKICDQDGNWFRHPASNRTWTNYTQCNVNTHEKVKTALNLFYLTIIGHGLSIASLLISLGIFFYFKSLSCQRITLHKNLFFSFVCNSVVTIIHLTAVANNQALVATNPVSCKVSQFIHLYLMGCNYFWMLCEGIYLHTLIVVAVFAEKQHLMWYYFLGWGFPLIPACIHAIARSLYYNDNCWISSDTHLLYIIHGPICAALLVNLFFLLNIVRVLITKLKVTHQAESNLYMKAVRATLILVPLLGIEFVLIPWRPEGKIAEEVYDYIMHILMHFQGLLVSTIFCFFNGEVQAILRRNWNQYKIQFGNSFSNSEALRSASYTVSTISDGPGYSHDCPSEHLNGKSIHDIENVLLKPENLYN
T2 sequence (O60895 43-175 limits assumed, chain 2 of 2): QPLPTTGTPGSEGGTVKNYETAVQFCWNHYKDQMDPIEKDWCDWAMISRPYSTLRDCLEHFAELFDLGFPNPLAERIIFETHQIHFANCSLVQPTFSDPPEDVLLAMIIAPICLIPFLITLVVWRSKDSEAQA
T1 sequence (Q16602 23-461 limits assumed, chain 1 of 2): as the sequence (Q16602 23-461 limits assumed, chain 1 of 2) above
T1 sequence (O60894 27-148 limits assumed, chain 2 of 2): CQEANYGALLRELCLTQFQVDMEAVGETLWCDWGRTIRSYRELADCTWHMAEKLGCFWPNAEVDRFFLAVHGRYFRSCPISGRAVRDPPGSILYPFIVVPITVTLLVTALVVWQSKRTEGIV

| Binder | EC50 (nM), CLR/RAMP1 cAMP assay [1] | EC50 (nM), CLR/RAMP2 arrestin assay [2] | further results |
| --- | --- | --- | --- |
| Palmitoyl-KGCRFGTCTVQKLAHQIYQFTDKDKDNVAPVDPSSPHSY-NH2 (ends and bridges not checked) [SEQ ID NO: 34] | 0.2 nM | 0.7 nM |  |
| Palmitoyl-KGCRFGTCTVQKLAHQIYQFTDKDKQDSAPVDPSSPHSY-NH2 (ends and bridges not checked) [SEQ ID NO: 35] | 0.8 nM | 1 nM |  |
| miniPEG-K(Palmitoyl)GCRFGTCTVQKLAHQIYQFTDKDKDNVDPSSPHSY-NH2 (cysteine pairing not given here) [SEQ ID NO: 94] |  |  | Max Activity % of positive control, CLR/RAMP1 cAMP assay [1]: 67 % of positive control; Max Activity % of positive control, CLR/RAMP2 arrestin assay [2]: 82 % of positive control |
| Palmitoyl-KGCRFGTCTVQKLAHQIYQFTDKDAPVDPSSPHSY-NH2 (ends and bridges not checked) [SEQ ID NO: 110] | 43 nM | 6.4 nM |  |
| Ac-TVQKLAHQIYQFTDKDKDNSAPVDPSSPHSY-NH2 [SEQ ID NO: 76] |  |  | IC50 (nM), CGRP-stimulated CLR/RAMP1 cAMP assay [3]: 1120 nM; IC50 (nM), ADM-stimulated CLR/RAMP2 arrestin assay [4]: 289 nM |
| Ac-TK(Palmitoyl)KTLRTGCRFGTCTVQKLAHQIYQFTDKDKDNSAPVDPSSPHSY-NH2 (ends and bridges not checked) [SEQ ID NO: 39] | 0.2 nM | 0.5 nM |  |
| Ac-VGCRFGTCTVQKLAHQIYQFTDKDKDNSAPVDPSSPHSY-NH2 (ends and bridges not checked) [SEQ ID NO: 56] | 224 nM | 17 nM |  |
| Ac-TK(Palmitoyl)KTLRTGCRFGTCTVQKLAHQIYQFTDKDKDNVAPVDPSSPHSY-NH2 (ends and bridges not checked) [SEQ ID NO: 41] | 0.4 nM | 0.9 nM |  |
| miniPEG-K(Palmitoyl)GCRFGTCTVQKLAHQIYQFTDKDKSAPVDPSSPHSY-NH2 (ends and bridges not checked) [SEQ ID NO: 47] |  | 0.4 nM | Max Activity % of positive control, CLR/RAMP1 cAMP assay [1]: 85 % of positive control; Max Activity % of positive control, CLR/RAMP2 arrestin assay [2]: 64 % of positive control |
| [AEEEA]K(Palmitoyl)GCRFGTCTVQKLAHQIYQFTDKDKQDSAPVDPSSPHSY-NH2 (ends and bridges not checked) [SEQ ID NO: 51] |  | 0.3 nM |  |
| Palmitoyl-KTKKTLRTGCRFGTCTVQKLAHQIYQFTDKDKDNSAPVDPSSPHSY-NH2 (not fully specified; printed as Pal-KTKKTLRTGCRFGTCTVQKLAHQIYQFTDKDKDNSAPVDPSSPHSY-NH2; ends and bridges not checked) [SEQ ID NO: 38] | 0.5 nM | 0.7 nM |  |
| [AEEEA]K(Palmitoyl)GCRFGTCTVQKLAHLWQLMGPAGRQDSAPVDPSSPHSY-NH2 (ends and bridges not checked) [SEQ ID NO: 62] |  |  | Max Activity % of positive control, CLR/RAMP1 cAMP assay [1]: 2 % of positive control |
| Palmitoyl-KGCRFGTCTVQKLAHQIYQFTDKGRQDSAPVDPSSPHSY-NH2 (ends and bridges not checked) [SEQ ID NO: 36] | 0.6 nM | 0.9 nM |  |
| Palmitoyl-KTKKTLRTGCRFGTCTVQKLAHQIYQFTDKDKDNVAPVDPSSPHSY-NH2 (not fully specified; printed as Pal-KTKKTLRTGCRFGTCTVQKLAHQIYQFTDKDKDNVAPVDPSSPHSY-NH2; ends and bridges not checked) [SEQ ID NO: 40] | 2 nM | 1 nM |  |
| Palmitoyl-TVQKLAHQIYQFTDKDKDNSAPVDPSSPHSY-NH2 [SEQ ID NO: 77] |  |  | IC50 (nM), CGRP-stimulated CLR/RAMP1 cAMP assay [3]: 9.9 nM; IC50 (nM), ADM-stimulated CLR/RAMP2 arrestin assay [4]: 47 nM |
| Ac-KGCRFGTCTVQKLAHQIYQFTDKDSAPVDPSSPHSY-NH2 (ends and bridges not checked) [SEQ ID NO: 93] | 771 nM | 17 nM |  |
| miniPEG-K(Palmitoyl)TKKTLRTGCRFGTCTVQKLAHQIYQFTDKDKDNVAPRSKISPQGY-NH2 (ends and bridges not checked) [SEQ ID NO: 70] |  |  | Max Activity % of positive control, CLR/RAMP1 cAMP assay [1]: 69 % of positive control; Max Activity % of positive control, CLR/RAMP2 arrestin assay [2]: 68 % of positive control |

| Binder | EC50 (nM), CLR/RAMP1 cAMP assay [1] | EC50 (nM), CLR/RAMP2 arrestin assay [2] | further results |
| --- | --- | --- | --- |
| Ac-VGCRFGTCTVQKLAHQIYQFTPAGRQDSAPVDPSSPHSY-NH2 (ends and bridges not checked) [SEQ ID NO: 57] | 909 nM | 149 nM |  |
| Ac-KGCRFGTCTVQKLAHQIYQFTDKDKDNSAPVDPSSPHSY-NH2 (ends and bridges not checked) [SEQ ID NO: 59] | 31 nM | 18 nM |  |
| Ac-KGCRFGTCTVQKLAHQIYQFTDKDKDNVAPVDPSSPHSY-NH2 (ends and bridges not checked) [SEQ ID NO: 60] | 16 nM | 3 nM |  |
| [AEEEA]K(Palmitoyl)GCRFGTCTVQKLAHQIYQFTDKDKDSAPVDPSSPHSY-NH2 (ends and bridges not checked) [SEQ ID NO: 46] |  | 0.5 nM | Max Activity % of positive control, CLR/RAMP2 arrestin assay [2]: 104 % of positive control |
| Palmitoyl-KGCRFGTCTVQKLAHQIYQFTDKDKDNSAPVDPSSPHSY-NH2 (ends and bridges not checked) [SEQ ID NO: 30] | 0.4 nM | 0.6 nM |  |
| Palmitoyl-KCRFGTCTVQKLAHQIYQFTDKDKDNSAPVDPSSPHSY-NH2 (ends and bridges not checked) [SEQ ID NO: 44] | 0.1 nM | 0.2 nM |  |
| Palmitoyl-KVQKLAHQIYQFTDKSAPVDPSSPHSY-NH2 [SEQ ID NO: 125] |  |  | IC50 (nM), CGRP-stimulated CLR/RAMP1 cAMP assay [3]: 7 nM; IC50 (nM), ADM-stimulated CLR/RAMP2 arrestin assay [4]: 7.1 nM |
| Ac-K(Palmitoyl)GCRFGTCTVQKLAHQIYQFTPAGRQDSAPVDPSSPHSY-NH2 (ends and bridges not checked) [SEQ ID NO: 33] | 0.3 nM | 0.4 nM |  |
| Ac-K(Palmitoyl)GCRFGTCTVQKLAHQIYQFTDKDKDNVAPRSKSSPHSY-NH2 (ends and bridges not checked) [SEQ ID NO: 65] | 234 nM |  |  |
| Palmitoyl-KGCRFGTCTVQKLAHQIYQFTPAGRQDSAPVDPSSPHSY-NH2 (ends and bridges not checked) [SEQ ID NO: 31] | 0.8 nM | 0.9 nM |  |
| miniPEG-K(Palmitoyl)GCRFGTCTVQKLAHQIYQFTDKDKDNVAPVDPSSPHSY-NH2 (cysteine pairing not given here) [SEQ ID NO: 50] |  |  | Max Activity % of positive control, CLR/RAMP1 cAMP assay [1]: 65 % of positive control; Max Activity % of positive control, CLR/RAMP2 arrestin assay [2]: 87 % of positive control |
| Ac-FGCRFGTCTVQKLAHQIYQFTDKDKDNVAPRSKISPQGY-NH2 (cysteine pairing not given here) [human ADM, SEQ ID NO: 53] |  |  | Max Activity % of positive control, CLR/RAMP1 cAMP assay [1]: 69 % of positive control; Max Activity % of positive control, CLR/RAMP2 arrestin assay [2]: 102 % of positive control |
| miniPEG-TK(Palmitoyl)KTLRTGCRFGTCTVQKLAHQIYQFTDKDKDNVAPVDPSSPHSY-NH2 (cysteine pairing not given here) [SEQ ID NO: 42] |  | 0.2 nM |  |
| [AEEEA]K(Palmitoyl)CRFGTCTVQKLAHQIYQFTDKDKDNSAPVDPSSPHSY-NH2 (ends and bridges not checked) [SEQ ID NO: 43] | 0.5 nM | 0.2 nM | Max Activity % of positive control, CLR/RAMP1 cAMP assay [1]: 39 % of positive control; Max Activity % of positive control, CLR/RAMP2 arrestin assay [2]: 30 % of positive control |
| KGCRFGTCTVQKLAHQIYQFTDKDKDNVAPRSKISPQGY (N-terminal palmitoyl (Pal); palmitoyl on Lys 1 side chain, K(Pal); C-terminal amide) [SEQ ID NO: 73] | 34 nM | 49 nM |  |
| Palmitoyl-GCRFGTCTVQKLAHQIYQFTDKDKDNSAPVDPSSPHSY-NH2 (ends and bridges not checked) [SEQ ID NO: 45] | 0.1 nM | 0.3 nM |  |
